The results in this text go back to patent publication US20140037708A1, “COMPOSITION FOR SPATIO AND/OR TEMPORAL RELEASE OF BIOACTIVE MATERIAL” (The Regents of the University of Colorado, a body corporate, priority 2012, published 2014).

The series is described as follows: Double-sided release test of fluorescent molecules from electrospun scaffolds in custom-made diffusion chambers. It is filed as physicochemical. Here is the method:
For molecule release characterizations, the circular samples with 24 mm in diameter were cut from PCL-PLGAac and PCL-PLGAes scaffolds loaded with fluorescent dye or fluorescently-labeled albumin. For each experimental condition, 3 samples were used for analyses. Scaffold samples were placed in a custom-made diffusion-test system in which a sample was sandwiched between two reservoir chambers. Each side of the electrospun scaffolds thus faced a different reservoir filled with 1 ml of buffer solution. The reservoirs used SecureSeal hybridization chambers (Grace Biolabs, Bend, Oreg.) which tightly sealed the surface. Each reservoir had small holes for sampling and changing solutions. The holes were covered with silicone sealing tap during experiments to prevent evaporation. Thus, the molecule movements between the reservoirs could only be through the pores of the electrospun materials. The release tests were performed at 37° C. Samples of buffer solutions in both reservoirs were collected every day during the first 16 days, and subsequently once a week for scaffolds loaded with fluorescent albumins. A shorter release experiment was performed in case of electrospun scaffolds loaded with Rh123. After samples were taken, the reservoir chambers were rapidly rinsed with DI water and refilled with fresh phosphate buffer at 37° C. […] The geometry and porosity of the molecule-releasing scaffolds kept constant for all the experimental samples. For the designs with multiple molecules, as various fluorophores could be simultaneously released by the samples, the possibility of the overlap of the fluorophore emission spectra was examined; we could find no overlaps in the interested spectrum ranges. […] For each type of molecule, the efficiency of separation between Side A and Side B, Smolecule—A-B, was defined as the percentage of the molecule released on Side A over the total amount of the molecule released on Sides A and B during the entire experimental duration.
To assess the potential use of PCL-PLGAac and PCL-PLGAes materials for spatially controlled release of active molecules, release experiments were performed using Rh123. PCL and PLGA/Rh123 solutions were electrospun to prepare scaffolds following the pattern described in FIG. 1. Release studies were carried out in custom-made diffusion chambers illustrated in FIG. 7a. The two sealed reservoirs filled with phosphate buffer solution were placed on the opposite sides of the electrospun scaffolds. The PCL side of the scaffold was set to face the buffer reservoir chamber on Side “A”; the Rh123-impregnated PLGA side was placed in contact with the buffer reservoir on Side “B”. […] The separation efficiency of Rh123 between the two surfaces (SRh123—B-A) of the PCL-PLGAac scaffolds was 82±5% during the 9-day release experiment. […] In addition, after day 3, the molecule concentration measured on the PCL side exceeded that on the PLGAes side.

Consider “fluorescein isothiocyanate conjugate bovine serum albumin [AlbF]”, for which the “separation efficiency (release of two proteins to one side)” value (PCL-PLGAac composite scaffold, AlbF in inner PLGAac fibers, AlbT in outer PLGAac fibers (FIG. 10a)) is given as 87±5%. Further, the “separation efficiency between side B and side A (sequential release scaffold)” value (PCL/PLGA scaffold with dual PLGA gradient patterns: AlbF-loaded PLGA in the middle, AlbT-loaded PLGA close to side B (FIG. 11a)) was determined as 0.92±0.03. In addition, where the note is “PLGAac-PCL-PLGAac composite scaffold, release to opposite sides (FIG. 12)”, the “separation efficiency of AlbF between Side A and Side B (SAlbF A-B)” value is 91±4%. The “initial release rate on Side B compared to AlbT” value (dual-protein PCL-PLGAac scaffold, first 10 days, cumulative release normalized to total delivered protein) is listed as “slower rate”. Further, the “day on which daily net release to side B peaked” value (sequential release scaffold (FIG. 11), first 12 days) amounted to 5 days.
